These are literature values, as cited in article PMC7527559.

Like-named read-outs stand apart in the source and are kept apart here.

Data set [1] concerns the target RNA polymerase (Escherichia coli) (UniProt P0A7Z4).
For data set [2] the target is unchanged. The source holds these as a separate data set.

Chain of DksA (P0ABS1 whole entry): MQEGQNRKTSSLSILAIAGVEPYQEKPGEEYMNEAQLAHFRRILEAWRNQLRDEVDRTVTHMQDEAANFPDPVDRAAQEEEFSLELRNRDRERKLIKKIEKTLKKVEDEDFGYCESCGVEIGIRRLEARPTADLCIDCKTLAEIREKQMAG
Chain of GreA (P0A6W5 whole entry): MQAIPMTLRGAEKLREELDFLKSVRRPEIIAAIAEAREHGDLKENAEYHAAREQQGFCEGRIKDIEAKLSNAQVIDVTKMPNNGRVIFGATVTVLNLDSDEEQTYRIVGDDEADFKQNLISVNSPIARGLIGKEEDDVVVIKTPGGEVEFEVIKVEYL

As a reminder, the Kd is the free concentration of one partner at which half of the binding sites on the other are occupied at equilibrium, for simple one-to-one binding. As to DksA (from UniProt P0ABS1), in data set [1], the Kd is 100 nM. For GreA (from UniProt P0A6W5), the dissociation constant Kd in data set [2] was 800 nM.
